In paper PMC5209733, “U24 from Roseolovirus interacts strongly with Nedd4 WW Domains” (Scientific Reports, 2017) one finds binding result, Kd and dH data, which are given here for 4 molecules.

Non-standard residues stand in square brackets, D forms with d. No end group written: not given here. pT = C[C@@H](OP(=O)(O)O)[C@H](N)C(=O)O

In test [1] the target is T1, U24-6A protein (recombinant full length U24 from HHV-6A) (Human Herpes Virus type 6A (HHV-6A), UniProt Q69559 1-87).
T1 construct: U24 protein of Human Herpes Virus type 6A (HHV-6A), full length
T1 sequence: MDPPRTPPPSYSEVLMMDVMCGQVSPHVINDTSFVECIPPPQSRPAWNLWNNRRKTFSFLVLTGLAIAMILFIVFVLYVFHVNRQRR
The test can be described thus: pull-down; GST-Nedd4 WW domain (1 to 2 nmole) immobilised on 20 uL Glutathione Sepharose 4B resin, incubated 1 hour at 4 °C with U24 protein in pull down buffer (20 mM KH2PO4, 75 mM NaCl, 0.5% Triton X-100, pH 7.4; 1 mM DTT for U24-7); SDS-PAGE, silver stain. As to conditions: both partners purified.

Test [2] deals with T2, rNedd4-WW3/4 domain (third WW domain of rat Nedd4, GST tag removed) (rat, UniProt Q62940 452-499).
T2 construct: Nedd4 E3 ubiquitin ligase, rat, third WW domain (WW3/4, homologue of the fourth WW domain in human); Thrombin cleavage may leave vector residues at the N-terminus (surmised); source: E. coli BL21(DE3), purified (Glutathione Sepharose 4B, thrombin cleavage on the resin); 15N-labelled in M9 medium for NMR; not shown: GST, N-terminal, cleaved
The test can be described thus: ITC; peptide titrated into the cleaved WW domain (40 to 150 uM) in the cell; 10 mM sodium phosphate, pH 7.4, 25 °C; MicroCal VP-ITC; bimolecular interaction model; three runs (further runs with 100 mM and 500 mM NaCl told in words only). As to conditions: both partners purified. (In general: ITC needs no label: the signal is the heat of the interaction.)

B1: GST-rNedd4-WW3/4 (third WW domain of rat Nedd4 fused to the C-terminus of GST) (domain or fragment)
chain: PVDSNDLGPLPPGWEERTHTDGRVFFINHNIKKTQWEDPRMQNVAITG
notes: Nedd4 E3 ubiquitin ligase, rat, third WW domain (WW3/4, homologue of the fourth WW domain in human); Plasmid was a gift from J. D. Forman-Kay; source: E. coli BL21(DE3), purified (Glutathione Sepharose 4B, eluted with glutathione); not shown: GST, N-terminal, kept
Regarding B1, the binding result in test [1] is given as “binds”.

B2: pU24-6A peptide (15-mer, N-terminus of U24 from HHV-6A phosphorylated at Thr6) (peptide)
peptide: MDPPR[pT]PPPSYSEVL
notes: U24 protein of Human Herpes Virus type 6A (HHV-6A), 15-mer of the N-terminus with phospho-threonine at Thr6; source: purified peptide
The term Kd denotes a measure of binding affinity in units of concentration. A high value points to weaker binding. Turning to B2, in test [2], the Kd turned out to be 13.5 µM and the dH is -12.9 kcal/mol.

B3: GST-hNedd4L-WW3* (third WW domain of human Nedd4-like protein fused to the C-terminus of GST) (domain or fragment)
chain: QSFLPPGWEMRIAPNGRPFFIDHNTKTTTWEDPRLKFPVHMRSK
notes: Nedd4-like protein (Nedd4L), human, cDNA clone KIAA0439, third WW domain (WW3*); Cloned into BamHI and XhoI sites of pGEX-4T2; source: E. coli BL21(DE3), purified (Glutathione Sepharose 4B, eluted with glutathione); not shown: GST, N-terminal, kept
For the molecule B3, the binding result in test [1] is “binds”.

B4: U24-6A peptide (15-mer, N-terminus of U24 from HHV-6A) (peptide)
peptide: MDPPRTPPPSYSEVL
notes: U24 protein of Human Herpes Virus type 6A (HHV-6A), first 15 residues; source: purified peptide
In test [2], B4 yielded an equilibrium dissociation constant (Kd) of 43 µM and a dH of -11 kcal/mol.
